Source: paper PMC6368585, “Chaperone activation and client binding of a 2-cysteine peroxiredoxin” (Nature Communications, 2019)

B1: reduced, decameric Leishmania infantum mitochondrial 2-Cys peroxiredoxin mTXNPx (mTXNPxred) (enzyme)
chain: GSHMNLDYQMYRTATVREAAPQFSGQAVVNGAIKDINMNDYKGKYIVLFFYPMDFTFVCPTEIIAFSDRHADFEKLNTQVVAVSCDSVYSHLAWVNTPRKKGGLGEMHIPVLADKSMEIARDYGVLIEESGIALRGLFIIDKKGILRHSTINDLPVGRNVDEALRVLEAFQYADENGDAIPCGWKPGQPTLDTTKAGEFFEKNM
notes: Reduced form, decamer of five dimers; also called Prx1m; wt mTXNPx; source: E. coli BL21(DE3), purified; His tag removed with thrombin; reduced with 5 mM DTT; not shown: His6, N-terminal, cleaved; copies: 10

Columns and labels:
[1] = molecular target: luciferase (thermally unfolded model client) [luciferase: P08659]
Chain of luciferase (thermally unfolded model client) [luciferase: P08659] (P08659 whole entry): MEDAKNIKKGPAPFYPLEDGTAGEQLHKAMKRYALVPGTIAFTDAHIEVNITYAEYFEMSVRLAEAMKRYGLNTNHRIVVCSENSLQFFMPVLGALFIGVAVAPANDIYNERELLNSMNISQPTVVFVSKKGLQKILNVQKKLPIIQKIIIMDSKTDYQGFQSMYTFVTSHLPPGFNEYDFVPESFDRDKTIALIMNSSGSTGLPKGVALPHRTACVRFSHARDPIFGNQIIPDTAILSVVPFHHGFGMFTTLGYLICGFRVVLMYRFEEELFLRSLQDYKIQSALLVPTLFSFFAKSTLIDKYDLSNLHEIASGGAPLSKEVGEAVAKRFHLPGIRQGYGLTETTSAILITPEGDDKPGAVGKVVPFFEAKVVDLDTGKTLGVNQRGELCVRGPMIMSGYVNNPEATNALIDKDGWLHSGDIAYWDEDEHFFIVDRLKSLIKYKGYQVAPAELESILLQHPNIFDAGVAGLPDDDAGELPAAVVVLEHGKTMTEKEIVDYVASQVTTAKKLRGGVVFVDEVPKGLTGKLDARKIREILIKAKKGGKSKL

[2] = molecular target: T1, luciferase (thermally unfolded model client) (UniProt P08659 1-550 = luciferase); assay: AUC; analytical ultracentrifugation of mTXNPxred with luciferase (Supplemental Methods); conditions: both partners purified
T1 construct: luciferase, 63 kDa; cross-links were mapped onto the whole-chain model pdb 1LCI; source: bought: Promega
T1 sequence (P08659 whole entry): as above

[3] = molecular target: the molecule itself; assay: cross-linking; quantitative cross-linking (qCL) with isotopically light or heavy DSS (0.1 mM), each condition (Red or Ox, 30 °C or 42 °C) cross-linked apart and mixed 1:1; log2(H/L) of inter-protein K122/K123 peptide pairs across the dimer-dimer (A-type) interface; decamer to dimers

Row | Molecule | chaperone activity: suppression of the thermal aggregation of luciferase (0.1 µM, 42 °C, light scattering at 360 nm), different ratios up to a 40-fold molar excess, compared to wt-mTXNPx (% less active than wt-mTXNPx) [1] | stoichiometry N [2] | log2(H/L) of inter-protein cross-link Pep1-Pep1, heavy Red (42 °C) over light Red (30 °C) [3] | log2(H/L) of inter-protein cross-link Pep1-Pep2, heavy Red (30 °C) over light Red (42 °C) [3] | log2(H/L) of inter-protein cross-link Pep1-Pep2, heavy Red (42 °C) over light Red (30 °C) [3]
1 | ∆5mTXNPx, N-terminal truncation mutant lacking the first 5 residues of the mature protein (reduced) (from UniProt A0A6L0XFC6 33-226) (enzyme) | > 70 |  |  |  | 
2 | B1 |  | 1 luciferase per mTXNPx decamer | -2.32 log2 ratio | 1.4 log2 ratio | -1.55 log2 ratio
